Results on one molecule are retold here after PMC5864733 (Nature Communications, 2018).

For this assay, the target named is T1, CesT (residues 1-156), 6xHis-tagged, wild type (enteropathogenic E. coli (EPEC) O127:H6 …, UniProt P21244 1-156).
T1 construct: source: E. coli BL21(DE3), purified (Ni-NTA, gel filtration); not shown: His6, N-terminal, kept
Description: SPR. The note with it: both partners purified.

T1 sequence (P21244 whole entry, the tested form may be a part): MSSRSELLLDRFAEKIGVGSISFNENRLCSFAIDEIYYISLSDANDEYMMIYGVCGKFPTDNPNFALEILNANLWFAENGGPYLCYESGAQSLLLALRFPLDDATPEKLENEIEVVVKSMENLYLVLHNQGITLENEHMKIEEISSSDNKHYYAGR

B1: CsrA (residues 1-61), GST tag removed (natural protein)
chain: not shown
notes: also called WT CsrA; native CsrA
As for B1, the “KD of the first ligand binding site in CsrA (Bivalent-Analyte model)” value was approximately 148 nM.
